PMC9482650, “Quantitative fragmentomics allow affinity mapping of interactomes” (Nature Communications, 2022)

T1: PTPN13_1, Q12923
T1 sequence (Q12923 1088-1188, limits assumed, looked up): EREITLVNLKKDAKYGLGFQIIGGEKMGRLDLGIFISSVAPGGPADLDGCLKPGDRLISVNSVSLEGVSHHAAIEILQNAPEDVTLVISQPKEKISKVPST

T2: LNX2_2, Q8N448
T2 sequence (Q8N448 334-432, limits assumed, looked up): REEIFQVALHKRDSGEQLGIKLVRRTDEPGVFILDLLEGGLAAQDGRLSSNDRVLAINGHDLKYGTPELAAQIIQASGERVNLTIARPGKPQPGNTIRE

T3: PARD3B_1, Q8TEW8
T3 sequence (Q8TEW8 196-299, limits assumed, looked up): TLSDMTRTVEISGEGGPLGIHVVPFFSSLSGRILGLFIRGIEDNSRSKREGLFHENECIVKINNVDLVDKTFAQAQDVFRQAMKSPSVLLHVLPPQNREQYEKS

T4: GRIP1_4, Q9Y3R0
T4 sequence (Q9Y3R0 467-571, limits assumed, looked up): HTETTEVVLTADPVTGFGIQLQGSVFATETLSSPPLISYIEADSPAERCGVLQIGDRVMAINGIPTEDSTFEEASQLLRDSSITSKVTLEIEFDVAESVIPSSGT

T5: DFNB31_1, Q9P202
T5 sequence (Q9P202 135-233, limits assumed, looked up): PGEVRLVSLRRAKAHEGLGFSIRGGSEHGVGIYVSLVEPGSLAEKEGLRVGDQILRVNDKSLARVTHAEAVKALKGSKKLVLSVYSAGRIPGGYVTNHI

T6: DLG3_3, Q92796
T6 sequence (Q92796 374-475, limits assumed, looked up): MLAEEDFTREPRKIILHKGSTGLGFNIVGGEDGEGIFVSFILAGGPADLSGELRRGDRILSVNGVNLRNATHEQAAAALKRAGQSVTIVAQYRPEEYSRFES

T7: SIPA1L2, Q9P2F8
T7 sequence (Q9P2F8 945-1036, limits assumed, looked up): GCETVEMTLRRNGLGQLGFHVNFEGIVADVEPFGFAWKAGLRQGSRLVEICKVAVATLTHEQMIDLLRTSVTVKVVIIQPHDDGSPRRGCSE

T8: SHANK1, Q9Y566
T8 sequence (Q9Y566 658-767, limits assumed, looked up): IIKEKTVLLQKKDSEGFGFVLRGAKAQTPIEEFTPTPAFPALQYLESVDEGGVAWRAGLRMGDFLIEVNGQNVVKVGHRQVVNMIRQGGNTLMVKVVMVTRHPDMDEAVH

T9: SNTG2, Q9NY99
T9 sequence (Q9NY99 68-166, limits assumed, looked up): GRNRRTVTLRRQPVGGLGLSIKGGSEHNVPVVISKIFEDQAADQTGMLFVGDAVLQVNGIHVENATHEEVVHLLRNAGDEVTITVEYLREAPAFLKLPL

T10: MPP2, Q14168
T10 sequence (Q14168 180-250, limits assumed, looked up): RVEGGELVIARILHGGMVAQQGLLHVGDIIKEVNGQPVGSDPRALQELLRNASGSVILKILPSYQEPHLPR

T11: PDZD7_3, Q9H5P4
T11 sequence (Q9H5P4 857-944, limits assumed, looked up): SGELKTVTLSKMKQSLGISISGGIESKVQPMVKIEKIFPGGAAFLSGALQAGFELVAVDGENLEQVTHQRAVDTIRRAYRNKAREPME


Columns and labels:
Assay in all cases: holdup assay
Design in all cases: key: below the threshold = too weak to quantify, mostly under pKd 3.1 to 4
Details in all cases: plain residues with an end cap or a label only (N-terminal biotin on a linker: ado-ado)
[1] = target: Inadl_9, Q8NI35
Inadl_9, Q8NI35, sequence (Q8NI35 1530-1615): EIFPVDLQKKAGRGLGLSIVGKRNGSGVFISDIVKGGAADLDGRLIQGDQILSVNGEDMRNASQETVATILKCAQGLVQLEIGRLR

[2] = target: GRID2IP_2, A4D2P6
GRID2IP_2, A4D2P6, sequence (A4D2P6 272-370): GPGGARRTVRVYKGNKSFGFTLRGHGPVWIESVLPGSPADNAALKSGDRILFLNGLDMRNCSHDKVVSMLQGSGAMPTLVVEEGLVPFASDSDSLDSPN

[3] = target: T1, PTPN13_1, Q12923
[4] = target: FRMPD4, Q14CM0
FRMPD4, Q14CM0, sequence (Q14CM0 67-160): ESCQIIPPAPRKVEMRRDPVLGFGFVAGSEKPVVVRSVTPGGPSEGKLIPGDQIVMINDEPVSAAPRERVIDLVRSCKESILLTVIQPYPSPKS

[5] = target: LDB3, O75112
LDB3, O75112, sequence (O75112 1-94): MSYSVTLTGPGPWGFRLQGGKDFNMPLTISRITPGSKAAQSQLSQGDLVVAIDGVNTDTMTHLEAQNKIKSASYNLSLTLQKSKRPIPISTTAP

[6] = target: T2, LNX2_2, Q8N448
[7] = target: T3, PARD3B_1, Q8TEW8
[8] = target: T4, GRIP1_4, Q9Y3R0
[9] = target: MAGI1_1, Q96QZ7
MAGI1_1, Q96QZ7, sequence (Q96QZ7 1-106): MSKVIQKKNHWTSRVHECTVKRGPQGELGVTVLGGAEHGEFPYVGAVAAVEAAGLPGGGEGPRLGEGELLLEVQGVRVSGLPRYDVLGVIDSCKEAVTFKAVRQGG

[10] = target: T5, DFNB31_1, Q9P202
[11] = target: SCRIB_3, Q14160
SCRIB_3, Q14160, sequence (Q14160 999-1103): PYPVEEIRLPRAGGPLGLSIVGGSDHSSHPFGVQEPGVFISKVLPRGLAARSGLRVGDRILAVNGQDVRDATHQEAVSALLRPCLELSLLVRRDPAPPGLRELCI

[12] = target: T6, DLG3_3, Q92796
[13] = target: LNX1_1, Q8TBB1
LNX1_1, Q8TBB1, sequence (Q8TBB1 261-371): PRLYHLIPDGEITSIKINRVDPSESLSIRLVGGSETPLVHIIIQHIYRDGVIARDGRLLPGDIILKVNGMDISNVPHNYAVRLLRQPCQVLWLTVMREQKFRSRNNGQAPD

[14] = target: T7, SIPA1L2, Q9P2F8
[15] = target: ARHGEF12, Q9NZN5-2
ARHGEF12, Q9NZN5-2, sequence (Q9NZN5 other isoform, or with tags, fused parts or gaps): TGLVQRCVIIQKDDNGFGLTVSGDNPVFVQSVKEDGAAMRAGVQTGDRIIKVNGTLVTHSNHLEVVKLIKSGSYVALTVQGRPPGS

[16] = target: T8, SHANK1, Q9Y566
[17] = target: NHERF4_2, Q86UT5
NHERF4_2, Q86UT5, sequence (Q86UT5 220-308): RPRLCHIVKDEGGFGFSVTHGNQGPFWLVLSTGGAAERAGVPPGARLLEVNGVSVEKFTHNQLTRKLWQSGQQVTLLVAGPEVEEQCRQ

[18] = target: GRASP, Q7Z6J2
GRASP, Q7Z6J2, sequence (Q7Z6J2 96-193): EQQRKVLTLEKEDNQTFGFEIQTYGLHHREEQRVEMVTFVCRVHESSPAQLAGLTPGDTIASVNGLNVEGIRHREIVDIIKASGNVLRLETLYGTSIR

[19] = target: NHERF2_2, Q15599
NHERF2_2, Q15599, sequence (Q15599 142-238): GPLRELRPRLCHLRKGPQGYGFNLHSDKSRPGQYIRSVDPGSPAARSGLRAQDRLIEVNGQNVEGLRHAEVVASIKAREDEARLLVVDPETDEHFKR

[20] = target: NHERF4_1, Q86UT5-2
NHERF4_1, Q86UT5-2, sequence (Q86UT5 other isoform, or with tags, fused parts or gaps): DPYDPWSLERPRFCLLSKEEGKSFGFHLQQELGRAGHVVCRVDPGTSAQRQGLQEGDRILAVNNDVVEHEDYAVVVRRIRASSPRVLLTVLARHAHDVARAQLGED

[21] = target: T9, SNTG2, Q9NY99
[22] = target: CASK, O14936
CASK, O14936, sequence (O14936 487-570): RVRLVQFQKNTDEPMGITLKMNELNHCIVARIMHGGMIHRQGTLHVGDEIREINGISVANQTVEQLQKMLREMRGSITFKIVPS

[23] = target: MAGI2_6, Q86UL8
MAGI2_6, Q86UL8, sequence (Q86UL8 1141-1229): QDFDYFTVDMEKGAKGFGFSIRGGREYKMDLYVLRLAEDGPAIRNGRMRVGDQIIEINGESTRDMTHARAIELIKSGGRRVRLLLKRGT

[24] = target: T10, MPP2, Q14168
[25] = target: T11, PDZD7_3, Q9H5P4
[26] = target: IL16_1, Q14005
IL16_1, Q14005, sequence (Q14005 210-306): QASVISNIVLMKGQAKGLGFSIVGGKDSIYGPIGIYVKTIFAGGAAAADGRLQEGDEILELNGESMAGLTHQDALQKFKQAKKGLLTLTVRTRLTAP

| Binder | pKd [1] | pKd [2] | pKd [3] | pKd [4] | pKd [5] | pKd [6] | pKd [7] | pKd [8] | pKd [9] | pKd [10] | pKd [11] | pKd [12] | pKd [13] | pKd [14] | pKd [15] | pKd [16] | pKd [17] | pKd [18] | pKd [19] | pKd [20] | other results |
| --- | --- | --- | --- | --- | --- | --- | --- | --- | --- | --- | --- | --- | --- | --- | --- | --- | --- | --- | --- | --- | --- |
| PAPSSGKDYV [CLDN1, O95832] | 3.61 | below the threshold | below the threshold | 3.59 | below the threshold | 4.07 | below the threshold | below the threshold | 3.55 | below the threshold | below the threshold | below the threshold | below the threshold | below the threshold | below the threshold | below the threshold | below the threshold | below the threshold | below the threshold | 3.62 | pKd [21]: below the threshold; pKd [22]: below the threshold; pKd [23]: below the threshold; pKd [24]: below the threshold; pKd [25]: below the threshold; pKd [26]: below the threshold |
| EVEEFPETSV [TRPV3, Q8NET8] | 3.93 | 4.39 | 3.58 | 3.74 | below the threshold | 3.98 | below the threshold | 3.47 | 3.63 | 4.86 | 5.02 | 4.54 | 4.19 | 3.55 | 3.94 | 3.94 | below the threshold | 3.9 | 3.72 | below the threshold | pKd [21]: 5.05; pKd [22]: below the threshold; pKd [23]: 4.71; pKd [24]: below the threshold; pKd [25]: 4.82; pKd [26]: 4.17 |
| QGLAERISVL [PRKD2, Q9BZL6] | below the threshold | 4.81 | below the threshold | 3.83 | below the threshold | below the threshold | 4.47 | below the threshold | below the threshold | below the threshold | 4.19 | below the threshold | 3.86 | below the threshold | 5.06 | 4.23 | below the threshold | 4.73 | 4.5 | 4.27 | pKd [21]: 3.66; pKd [22]: below the threshold; pKd [23]: 3.98; pKd [24]: below the threshold; pKd [25]: 5.21; pKd [26]: 4.16 |
| LPHPHSTTRV [NLGN2, Q8NFZ4] | below the threshold | 3.63 | below the threshold | below the threshold | below the threshold | 3.51 | below the threshold | below the threshold | below the threshold | 4.13 | below the threshold | 3.86 | 3.64 | below the threshold | 3.84 | 4.81 | below the threshold | 4.18 | 3.75 | below the threshold | pKd [21]: 4.16; pKd [22]: below the threshold; pKd [23]: below the threshold; pKd [24]: below the threshold; pKd [25]: 4.26; pKd [26]: below the threshold |
